What is called Kd is the equilibrium constant for the complex coming apart. Higher therefore signals weaker binding.

The target of assay [1] is GDM_VEGFA_54. Nature of the assay: reported in original publication.
Assay [2] addresses VEGF-A Binder 13. Nature of the assay: BLI; KD2, second site.
Assay [3] has as its target VEGF-A Binder 13. Nature of the assay: BLI; KD1. For orientation: BLI is a label-free optical method that tracks binding on a fibre tip over time.
The target of a further assay is VEGF-A_Binder_13. Nature of the assay: BLI.
Assay [4] has as its target GDM_VEGFA_54. Nature of the assay: BLI.

B1: Vascular Endothelial Growth Factor A (VEGF-A) (ligand)
chain: MTDRQTDTAPSPSYHLLPGRRRTVDAAASRGQGPEPAPGGGVEGVGARGVALKLFVQLLGCSRFGGAVVRAGEAEPSGAARSASSGREEPQPEEGEEEEEKEEERGPQWRLGARKPGSWTGEAAVCADSAPAARAPQALARASGRGGRVARRGAEESGPPHSPSRRGSASRAGPGRASETMNFLLSWVHWSLALLLYLHHAKWSQAAPMAEGGGQNHHEVVKFMDVYQRSYCHPIETLVDIFQEYPDEIEYIFKPSCVPLMRCGGCCNDEGLECVPTEESNITMQIMRIKPHQGQHIGEMSFLQHNKCECRPKKDRARQEKKSVRGKGKGQKRKRKKSRYKSWSVPCGPCSERRKHLFVQDPQTCKCSCKNTDSRCKARQLELNERTCRCDKPRR
B1: the Kd with GDM_VEGFA_54 [1] worked out at 0.48 nM; with VEGF-A Binder 13 [2] it was 86.4 nM; with VEGF-A Binder 13 [3], 26.4 nM; with VEGF-A_Binder_13 it was 13.4 nM; with GDM_VEGFA_54 [4], 10.1 nM.

Source of the values: article doi:10.1101/2025.08.15.670450 (2025).
